The record followed here is publication PMC10645074, “Insulin receptor Arg717 and IGF-1 receptor Arg704 play a key role in ligand binding and in receptor activation” (Open Biology, 2023).

For this assay, the target named is T1, 125I-TyrA14 human insulin (human, 125I on TyrA14 (specific activity 2200 Ci/mmol)).
T1 construct: insulin A chain, human, cut product of proinsulin; insulin B chain, human, cut product of proinsulin; also called ^125I-HI; HI
The assay can be described thus: radioligand binding; saturation binding of the 125I-labelled ligand (0.05-5 nM) to isolated ectodomain-mCherry (300 ng/well) immobilised through its HisTag on 96-well plates by nickel-NTA iBodies with biotin on neutravidin; otherwise as the whole-cell assay; one-site specific binding fit. Particulars: both partners purified.

B1: isolated ecto-IR-A Arg717Gln conjugated with mCherry (domain or fragment)
chain 1: HLYPGEVCPGMDIRNNLTRLHELENCSVIEGHLQILLMFKTRPEDFRDLSFPKLIMITDYLLLFRVYGLESLKDLFPNLTVIRGSRLFFNYALVIFEMVHLKELGLYNLMNITRGSVRIEKNNELCYLATIDWSRILDSVEDNYIVLNKDDNEECGDICPGTAKGKTNCPATVINGQFVERCWTHSHCQKVCPTICKSHGCTAEGLCCHSECLGNCSQPDDPTKCVACRNFYLDGRCVETCPPPYYHFQDWRCVNFSFCQDLHHKCKNSRRQGCHQYVIHNNKCIPECPSGYTMNSSNLLCTPCLGPCPKVCHLLEGEKTIDSVTSAQELRGCTVINGSLIINIRGGNNLAAELEANLGLIEEISGYLKIRRSYALVSLSFFRKLRLIRGETLEIGNYSFYALDNQNLRQLWDWSKHNLTITQGKLFFHYNPKLCLSEIHKMEEVSGTKGRQERNDIALKTNGDQASCENELLKFSYIRTSFDKILLRWEPYWPPDFRDLLGFMLFYKEAPYQNVTEFDGQDACGSNSWTVVDIDPPLRSNDPKSQNHPGWLMRGLKPWTQYAIFVKTLVTFSDERRTYGAKSDIIYVQTDATNPSVPLDPISVSNSSSQIILKWKPPSDPNGNITHYLVFWERQAEDSELFELDYCLKGLKLPSRTWSPPFESEDSQKHNQSEYEDSAGECCSCPKTDSQILKELEESSFRKTFEDYLHNVVFVPQPS
chain 2: SLGDVGNVTVAVPTVAAFPNTSSTSVPTSPEEHRPFEKVVNKESLVISGLRHFTGYRIELQACNQDTPEERCSVAAYVSARTMPEAKADDIVGPVTHEIFENNVVHLMWQEPKEPNGLIVLYEVSYRRYGDEELHLCVSRKHFALERGCRLRGLSPGNYSVRIRATSLAGNGSWTEPTYFYVTDYLDVPSNIAK
As for B1, binding was characterised by a dissociation constant (Kd) of 0.27 nM.

For orientation: Kd means a measure of binding affinity in units of concentration. Higher therefore signals lower affinity.
